Results reported in the supplement of paper PMC12042874.
± gives the uncertainty stated by the source.

Assay: amyloid nucleation score (Sup35N fusion, yeast selection) (log enrichment); library NNK2; higher = more nucleation; inactive = no reads after selection
How it was run: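 Nucleation score is defined as the DiMSum log enrichment of output over input reads, with centring on the mode score of non-aggregating sequences. A minimum of 100 input reads was required for each sequence. Reads came from Illumina sequencing of plasmid inserts from psi-negative yeast expressing Sup35N fused to peptides of 20 random codons, induced with 100 μM copper sulfate for 24 hours and grown 7 days at 30°C on medium lacking adenine and uracil.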

SWMSGVVITETHTALGSWVN
amyloid nucleation score: 0.442 ± 0.37

RLTQCLVHRPYPV
amyloid nucleation score: 0.572 ± 0.3

WEYTG
amyloid nucleation score: 0.242 ± 0.74

GMSYTLYQSWTVDHTVILPP
amyloid nucleation score: 3.99 ± 0.12

FWCGCNFVVHLYVTSSSLKP
amyloid nucleation score: 8.006 ± 0.065

TCDKLGAVVMSLLECVNEAP
amyloid nucleation score: 0.205 ± 0.77

PFFVV
amyloid nucleation score: -0.791 ± 1.1

SSLWVWYLIVD
amyloid nucleation score: 0.145 ± 0.21

DCDMVFFLGIFFKSSGGKGN
amyloid nucleation score: 2.57 ± 0.083

DYMDAYGYINRGDPGLIVEV
amyloid nucleation score: -0.013 ± 0.53

MTVDYLHRLCCMRPLYTSKN
amyloid nucleation score: inactive

LCHEQLCGFRMFCYSHGR
amyloid nucleation score: 3.58 ± 0.11

VWSSLGRECPSSCIVFLSVE
amyloid nucleation score: -0.464 ± 0.78

SLELA
amyloid nucleation score: 0.472 ± 0.8

HIILIEGSMVCQTLVRGDLV
amyloid nucleation score: 5.514 ± 0.042

RIMTFFVMPDSRRRVDHNQV
amyloid nucleation score: 0.074 ± 1

YSYRVRI
amyloid nucleation score: 3.71 ± 0.056

RYNIVLGRLL
amyloid nucleation score: inactive

GATCTSCDRCIALVSGGRKR
amyloid nucleation score: 0.313 ± 0.44

PASNWIRYRMTFQDGPYVKR
amyloid nucleation score: 0.373 ± 0.66

LTSNTNSRMLRCSIMVQQS
amyloid nucleation score: -0.087 ± 0.45

CPSWFLSGDKCFYRGESSEN
amyloid nucleation score: -0.184 ± 0.63

WNSVIFCR
amyloid nucleation score: -0.704 ± 0.37

PGYVAWRIFFFGPVI
amyloid nucleation score: 0.007 ± 1.1

TYFAEIMNTPLRPSARHEAR
amyloid nucleation score: 1.72 ± 0.33

MKYSSFINLLPTTWQHYTMN
amyloid nucleation score: -0.119 ± 0.65

LFEDVMRKGRWRDASGRWKH
amyloid nucleation score: 3.27 ± 0.17

GYSLYVYIMDFFTWGNRVII
amyloid nucleation score: 2.02 ± 0.19

RSHTTGLPS
amyloid nucleation score: 0.718 ± 0.15

NTVHWSDSCRLFPHRDQQCF
amyloid nucleation score: -0.694 ± 0.61

LCMQSVSGALSPSARRRLCV
amyloid nucleation score: -0.235 ± 1.1

ANKSAGVLYNAASDLRVGVR
amyloid nucleation score: 0.923 ± 0.55

GGSMSGFLSCGMI
amyloid nucleation score: -1.02 ± 0.22

STCLTLSMRLLA
amyloid nucleation score: 3.84 ± 0.078

LLTLFG
amyloid nucleation score: -0.087 ± 0.56

VQYMHNRMVLWFFSDPLKDR
amyloid nucleation score: 2.58 ± 0.099

VMNHSQL
amyloid nucleation score: 3.92 ± 0.051

KVRLSDIPSLAMICFKRDIN
amyloid nucleation score: inactive

AFWRLAVLFVVCRIIF
amyloid nucleation score: 0.13 ± 0.65

IRMVDTCRVLKLSGEPFSRD
amyloid nucleation score: -0.993 ± 0.78

NTYYFKALT
amyloid nucleation score: 0.072 ± 1.1

ESHCYSGDTWLCLCLSLVTR
amyloid nucleation score: 8.457 ± 0.034

KVGKDTVYKGQSIQSVYLRC
amyloid nucleation score: -0.41 ± 0.49

TQYFYIMLQ
amyloid nucleation score: 5.16 ± 0.071

YRRYVLTL
amyloid nucleation score: 0.057 ± 0.76

RFQWSCEVRESPPLNVDLMG
amyloid nucleation score: 1.41 ± 0.44

TLRIGDFPWISWSEGVWVGG
amyloid nucleation score: 0.244 ± 0.65

WIDLNRRRREAL
amyloid nucleation score: -0.125 ± 0.34

FYLRFNTFVSDTNCLTDWLA
amyloid nucleation score: 3.46 ± 0.087

WIVVSSIDSFFCVSSSPQFR
amyloid nucleation score: inactive

KFHHGFLGELPAPEYSSESA
amyloid nucleation score: 0.25 ± 0.42

SQNETFFKMCVELN
amyloid nucleation score: 0.165 ± 0.54

SIVLSDGLGS
amyloid nucleation score: 0.044 ± 1.1

LIRSFNSSYVEGRHANI
amyloid nucleation score: 2.69 ± 0.14

FLACQYNCLVDSMG
amyloid nucleation score: 3.26 ± 0.051

SSRYPVIWESFVPNWTNSHF
amyloid nucleation score: -1.22 ± 1.1

YRILSNASWTFAVVQSCNPY
amyloid nucleation score: 5.789 ± 0.047

IAVNMCSFFVSDLHPMRWGY
amyloid nucleation score: 7.495 ± 0.035

NVGTRWSGDARNMFSSKGGK
amyloid nucleation score: 0.83 ± 0.31

GGQLGGPWPANSLYNVTAVT
amyloid nucleation score: -0.075 ± 0.31

SSFSIMLCGGVIFCIVAN
amyloid nucleation score: 5.02 ± 0.078

CLGNVCNSFNWLDVRACVWR
amyloid nucleation score: 1.52 ± 0.23

NCNRYRMRTKFRRSYMGSVR
amyloid nucleation score: 0.157 ± 0.28

TSLKYSVENTVASPVDRTWL
amyloid nucleation score: -0.055 ± 1.1

FIEGVRMHLRGM
amyloid nucleation score: 2.86 ± 0.094

YCFSVYKGVGIGKKCGYLSS
amyloid nucleation score: inactive

NPSLELYKYISAIDMGINPP
amyloid nucleation score: inactive

LCFLVFMLRPRLASLYSRML
amyloid nucleation score: -1.11 ± 0.36

NKRLLLMFNRWDCVVSWDKC
amyloid nucleation score: -1.31 ± 0.78

IYLYPSYWCCFNRL
amyloid nucleation score: 9.605 ± 0.059

FYSFLFFHPIGMFARVYKCF
amyloid nucleation score: inactive

GVAGFDTSDNETG
amyloid nucleation score: 0.543 ± 0.33

LGIDAYCPWCVYECFSSRGE
amyloid nucleation score: 9.586 ± 0.057

WQVYQFSCRAEGEDL
amyloid nucleation score: 2.48 ± 0.12

SRACVLWKGLRRAANTC
amyloid nucleation score: 0.984 ± 0.27

YCLVTRLHR
amyloid nucleation score: 0.185 ± 0.8

TDCIWFHYLVTLWFLIRRCP
amyloid nucleation score: 0.741 ± 0.66

IREYHMFDGHMRDRCFGQVK
amyloid nucleation score: -0.048 ± 0.65

AFDEVSSFGGFFERCFWIKL
amyloid nucleation score: 5.91 ± 0.076

ILVTAYTFTMVRSDEGCRKV
amyloid nucleation score: 3.63 ± 0.085

LELKDNMAFDRSLFLKRHGG
amyloid nucleation score: -0.243 ± 0.28

NMMCISSHGSTTSGFLRSSL
amyloid nucleation score: 3.52 ± 0.062

RLFYYSSFYKDY
amyloid nucleation score: inactive

TSARRQLDDQRAWPEMAN
amyloid nucleation score: 0.239 ± 0.62

IIGGTYIWVCVRGPTGRFDG
amyloid nucleation score: 9.373 ± 0.064

KSGMWAFYSEDKRTSGLLRW
amyloid nucleation score: 0.626 ± 0.65

NFQVNMFVMF
amyloid nucleation score: 8.986 ± 0.027

LASTVNIEMVSVHRDWCVWM
amyloid nucleation score: 5.326 ± 0.029

MIFLYCYIRIEKKVS
amyloid nucleation score: -0.927 ± 0.36

PRRCSISIEFRDE
amyloid nucleation score: -0.718 ± 0.76

YGFLCRL
amyloid nucleation score: inactive

LTVLFVLTVCFNVAMGCCLS
amyloid nucleation score: -0.223 ± 0.76

WCSIDLSHFVCYNLGYMR
amyloid nucleation score: 7.395 ± 0.052

IAMFT
amyloid nucleation score: 6.299 ± 0.044

RCTRSR
amyloid nucleation score: 3.4 ± 0.12

HQIHLSY
amyloid nucleation score: -0.593 ± 1.1

SFSRSGFCHMCSLSALTGLR
amyloid nucleation score: -0.196 ± 1.1

IKTSDYNHFRYWSKRPYVSW
amyloid nucleation score: -0.738 ± 1.1

LERWYYPMS
amyloid nucleation score: 0.513 ± 0.16

GVLRENGN
amyloid nucleation score: 0.284 ± 1.1

CSNLSV
amyloid nucleation score: 0.167 ± 0.28

RFRWTSVSRVKGCFNKMYPS
amyloid nucleation score: 0.1 ± 0.3

NHAVVCLDFNGGFPGQA
amyloid nucleation score: -0.481 ± 0.53

VYAIHGTRYCELGAPIDKLY
amyloid nucleation score: 0.852 ± 0.29

DMVVMVYALLGPLQFECNK
amyloid nucleation score: 0.888 ± 0.15

TKMVCSKRMFVECVLNLF
amyloid nucleation score: 0.221 ± 0.31

LLGLHELSTS
amyloid nucleation score: 0.334 ± 0.46

NYIWFVNPYRRFSHVNHITN
amyloid nucleation score: -0.176 ± 1.1

TVATRHYNLNGQSWKKWAQ
amyloid nucleation score: 0.059 ± 0.23

YGPYSLSSF
amyloid nucleation score: -0.105 ± 1.1

FWSIMWLVCPGAMWCNT
amyloid nucleation score: 1.84 ± 0.28

VKIMMELPLKIDGFLSHVRR
amyloid nucleation score: 0.088 ± 0.24

YGDGGDIC
amyloid nucleation score: -0.612 ± 0.35

LVHFVVSALKT
amyloid nucleation score: inactive

PLQPNAIRRSMVSF
amyloid nucleation score: 0.894 ± 0.43

GIYYTT
amyloid nucleation score: -0.854 ± 0.28

CPSFMNSFDASRNIWIVPSG
amyloid nucleation score: 3.28 ± 0.058

LVSFKGKVLFFIS
amyloid nucleation score: 1.86 ± 0.13

FCILYSVFNGRLRYAFGDAS
amyloid nucleation score: -2.06 ± 0.62

NMIYYMFEYAWPCIVER
amyloid nucleation score: 7.37 ± 0.08

SSPLPQSCERNRVLRTRLGF
amyloid nucleation score: 0.874 ± 0.45

YIGCNNYEGKNKCVIFLSFS
amyloid nucleation score: 6.079 ± 0.05

SSLVGFERGRSMGRGMWVDL
amyloid nucleation score: 0.041 ± 0.63

LDRMSRIRGSCRYACVL
amyloid nucleation score: 1.15 ± 0.41

GNFDWAFHYGVFVHLCHKMG
amyloid nucleation score: inactive

VQGLHCWIG
amyloid nucleation score: inactive

SLAQDVRGYGLCNGKTNIVW
amyloid nucleation score: -0.867 ± 0.35

SQMSGSFRRSNGWIAV
amyloid nucleation score: inactive

TLIAYCLL
amyloid nucleation score: 7.492 ± 0.046

DLSLESLRSNEVEAVNMFVF
amyloid nucleation score: inactive

SVRMYWAGLLSENKRYNSQS
amyloid nucleation score: 3.89 ± 0.12

FCSCWNSEFNENSFVWRNIL
amyloid nucleation score: 5.35 ± 0.058

VLAKISTTE
amyloid nucleation score: 0.705 ± 0.15

NRLSELGPCFHLFTSV
amyloid nucleation score: 0.089 ± 1.1

RFHFSDWR
amyloid nucleation score: inactive

TYLGNLYIMRFRAVLREPLV
amyloid nucleation score: 0.077 ± 0.8

NFTSGGRRHNVERVGHLGLV
amyloid nucleation score: -0.168 ± 0.76

SQHSRHRRQSVVYYAVDGVE
amyloid nucleation score: 1.21 ± 0.31

KHFAIW
amyloid nucleation score: -0.08 ± 1

VRCSVCVGACEHGPVN
amyloid nucleation score: 1.27 ± 0.61

VDTRS
amyloid nucleation score: 0.382 ± 0.8

DTRKFLDKLYA
amyloid nucleation score: -0.13 ± 0.44

LSIAYFSSAWCFYL
amyloid nucleation score: 6.216 ± 0.038

LIQSFSVLAMHDRLGCWRLR
amyloid nucleation score: 2.74 ± 0.12

YTNAFRPRSVRLTVIRIGQY
amyloid nucleation score: 4.07 ± 0.11

NNGMFGNFSKSDYFDKWRYM
amyloid nucleation score: inactive

MVHPDVNHSYGSVWKPWSDK
amyloid nucleation score: 0.132 ± 0.44

GDSGFKLI
amyloid nucleation score: -0.105 ± 0.39

VFSGTSMRGTEEIKMSWCEK
amyloid nucleation score: 7.686 ± 0.044

IYFWDTLTFLLSCLHAAGEN
amyloid nucleation score: -1.87 ± 0.64

GRYNLLNKGNSAGVWCGLFS
amyloid nucleation score: -0.324 ± 1.1

SILLYKFK
amyloid nucleation score: 1.54 ± 0.12

GISSSHPRTNGHRQYLNFGV
amyloid nucleation score: -0.627 ± 0.61

RFSLYNLIIEVSAVVEFLWT
amyloid nucleation score: inactive

FMLVV
amyloid nucleation score: inactive

LYLTGNF
amyloid nucleation score: -0.199 ± 0.76

FVNIFIIHADYVGHRPAELR
amyloid nucleation score: 9.092 ± 0.081

TDVPSRIGPDMGKYLKAES
amyloid nucleation score: 0.655 ± 0.62

CDLKERTEYMHFLLTFYLVR
amyloid nucleation score: -0.891 ± 0.36

SFNDESGFLLSSGYPISFKR
amyloid nucleation score: inactive

LLVML
amyloid nucleation score: 0.851 ± 0.46

FWRLWIVCIPLVYLRR
amyloid nucleation score: 0.131 ± 1

RSHMYSGYIYLIQKTFLREV
amyloid nucleation score: -1.29 ± 0.26

VGGQRHWYLYHDSLHFPQLE
amyloid nucleation score: 0.396 ± 0.62

PRIFFYVNLFLRHWPEIKML
amyloid nucleation score: -2.08 ± 1.1

IFFVRACSKAGFVQPLSIFY
amyloid nucleation score: -0.113 ± 0.65

GDTIVSSGKVSCQRHASFLI
amyloid nucleation score: 0.959 ± 0.74

RYALFSARIYSLYWLWFCIF
amyloid nucleation score: inactive

LSHSDVKRALKWNCFPIGVC
amyloid nucleation score: -0.158 ± 0.28

LLNVIVVRIK
amyloid nucleation score: 5.313 ± 0.03

SPVICRVRGGLFINMSEYNV
amyloid nucleation score: inactive

HGGFRDFQSLSVPIRYDLYD
amyloid nucleation score: 1.14 ± 0.2

ATKVISALSIRMRRK
amyloid nucleation score: 1.32 ± 0.3
